Results on 11 molecules are retold here after paper PMC3669277, “Interactions between the R2R3-MYB Transcription Factor, AtMYB61, and Target DNA Binding Sites”.

The target in series [1] is T1, AtMYB61 (Arabidopsis thaliana, UniProt Q8VZQ2 1-366). As to the kind of experiment: filter binding; Buffer, salt, pH and temperature not stated (filter binding per Hall and Kranz; EMSA per earlier work); filter binding with 1065 nM probe (124.41 ng, 60 bp) in. The following applies: protein: recombinant; tags: pET15b (NdeI/BamHI) fusion.
T1 sequence (Q8VZQ2 whole entry, the tested form may be a part): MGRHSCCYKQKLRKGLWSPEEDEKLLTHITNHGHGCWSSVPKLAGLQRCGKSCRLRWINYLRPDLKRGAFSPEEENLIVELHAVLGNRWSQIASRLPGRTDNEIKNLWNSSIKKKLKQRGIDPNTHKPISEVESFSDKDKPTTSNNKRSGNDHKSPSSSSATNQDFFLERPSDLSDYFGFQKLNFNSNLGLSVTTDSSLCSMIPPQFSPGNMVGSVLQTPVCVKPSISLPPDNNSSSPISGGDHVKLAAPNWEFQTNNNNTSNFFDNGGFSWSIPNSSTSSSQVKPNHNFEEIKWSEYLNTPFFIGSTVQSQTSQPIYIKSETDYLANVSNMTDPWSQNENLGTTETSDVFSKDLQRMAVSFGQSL
In series [2] the target is T1, AtMYB61. As to the kind of experiment: EMSA; 5E-08 M protein; Buffer, salt, pH and temperature not stated (filter binding per Hall and Kranz; EMSA per earlier work); filter binding with 1065 nM probe (124.41 ng, 60 bp) in. Particulars: protein: recombinant; tags: pET15b (NdeI/BamHI) fusion.

Changes are numbered by the printed parent chain. In names and notes the source's numbering stands.

B1: ACCTAC (AC-I) (dsDNA)
DNA 1: ACATTGGGCGAGAAAAGCTGATCCCCACCTACCCGGGCTATCTCCCCCTCCTCCTCCGATCTG
DNA 2: CAGATCGGAGGAGGAGGGGGAGATAGCCCGGGTAGGTGGGGATCAGCTTTTCTCGCCCAATGT
With B1, the dissociation constant (Kd) with AtMYB61 [1] stood at 9.12 nM.

B2: ACCACC (dsDNA)
DNA 1: B1 DNA 1 with T30A, A31C
DNA 2: B1 DNA 2 with T33G, A34T
Regarding B2, in the series with AtMYB61 [1], the dissociation constant (Kd) is 690 nM.

B3: ACCTGC (AC-I mutant, A5G) (dsDNA)
DNA 1: B1 DNA 1 with A31G
DNA 2: B1 DNA 2 with T33C
As for B3, the Kd with AtMYB61 [1] came to 79.7 nM.

B4: ACCAAC (dsDNA)
DNA 1: B1 DNA 1 with T30A
DNA 2: B1 DNA 2 with A34T
For the molecule B4, the Kd with AtMYB61 [1] amounted to 73.7 nM.

B5: ACCGAC (AC-I mutant, T4G) (dsDNA)
DNA 1: B1 DNA 1 with T30G
DNA 2: B1 DNA 2 with A34C
With B5, the dissociation constant (Kd) with AtMYB61 [1] worked out at 719 nM.

B6: ACCTAG (AC-I mutant, C6G) (dsDNA)
DNA 1: B1 DNA 1 with C32G
DNA 2: B1 DNA 2 with G32C
Turning to B6, the Kd in the series with AtMYB61 [1] was 56 nM.

B7: NBS (non-binding site, GAGACC) (dsDNA)
DNA 1: B1 DNA 1 with A27G, C28A, C29G, T30A, A31C
DNA 2: B1 DNA 2 with T33G, A34T, G35C, G36T, T37C
As for B7, in the series with AtMYB61 [2], the binding result was “no binding”.

B8: ACCAAA (dsDNA)
DNA 1: B1 DNA 1 with T30A, C32A
DNA 2: B1 DNA 2 with G32T, A34T
With B8, in the series with AtMYB61 [1], the Kd is 16.8 nM.

B9: ACCAAT (dsDNA)
DNA 1: B1 DNA 1 with T30A, C32T
DNA 2: B1 DNA 2 with G32A, A34T
Consider B9, for which the Kd in the series with AtMYB61 [1] was determined as 12.1 nM.

B10: ACCACA (dsDNA)
DNA 1: B1 DNA 1 with T30A, A31C, C32A
DNA 2: B1 DNA 2 with G32T, T33G, A34T
Regarding B10, the Kd with AtMYB61 [1] worked out at 80.8 nM.

B11: ACCATA (dsDNA)
DNA 1: B1 DNA 1 with T30A, A31T, C32A
DNA 2: B1 DNA 2 with G32T, T33A, A34T
Consider B11, for which the Kd with AtMYB61 [1] was 18.3 nM.
